Test results taken from patent US6750197B1, “Activators of endothelial nitric oxide synthase” (Rensselaer Polytechnic Institute, priority 1996, dated 2004).

What was measured:
[1] = biological target: T1, NNOS (Rattus norvegicus, UniProt P29476); assay: CAM binding: radiolabeled CAM trapped on a membrane by NNOS adhesion; conditions: no peptide: 774 ± 40
Experimental: (§1) JX series polypeptides are approximately 30-mers derived from ENOS and NNOS inhibitory polypeptides. B058 series are shorter (6-mers to 15-mers) peptides derived from flanking loops or from shorter segments of inhibitory polypeptides. CAM binding data represents counts from radiolabeled CAM trapped on a membrane by NNOS adhesion. INOS activity was assayed by measuring oxidation of ferrous myoglobin by product NO.

[2] = biological target: INOS (Rattus norvegicus, UniProt Q06518); assay: INOS activity by oxidation of ferrous myoglobin by product NO; format: biochemical; design: unit not given here; conditions: peptide 0.1 mg/ml; no peptide: 14.9 ± .56
Experimental: as §1

[3] = biological target: T2, recombinant bovine ENOS (Bos taurus, UniProt P29473); assay: NOS activity, kinetic 96-well microtiter plate assay, NADPH consumption; format: biochemical; conditions: peptide 100 μg/ml; mean ± SEM, triplicate
T2 construct: made in house; host or cells: E. coli
T2 sequence (P29473 1-1205): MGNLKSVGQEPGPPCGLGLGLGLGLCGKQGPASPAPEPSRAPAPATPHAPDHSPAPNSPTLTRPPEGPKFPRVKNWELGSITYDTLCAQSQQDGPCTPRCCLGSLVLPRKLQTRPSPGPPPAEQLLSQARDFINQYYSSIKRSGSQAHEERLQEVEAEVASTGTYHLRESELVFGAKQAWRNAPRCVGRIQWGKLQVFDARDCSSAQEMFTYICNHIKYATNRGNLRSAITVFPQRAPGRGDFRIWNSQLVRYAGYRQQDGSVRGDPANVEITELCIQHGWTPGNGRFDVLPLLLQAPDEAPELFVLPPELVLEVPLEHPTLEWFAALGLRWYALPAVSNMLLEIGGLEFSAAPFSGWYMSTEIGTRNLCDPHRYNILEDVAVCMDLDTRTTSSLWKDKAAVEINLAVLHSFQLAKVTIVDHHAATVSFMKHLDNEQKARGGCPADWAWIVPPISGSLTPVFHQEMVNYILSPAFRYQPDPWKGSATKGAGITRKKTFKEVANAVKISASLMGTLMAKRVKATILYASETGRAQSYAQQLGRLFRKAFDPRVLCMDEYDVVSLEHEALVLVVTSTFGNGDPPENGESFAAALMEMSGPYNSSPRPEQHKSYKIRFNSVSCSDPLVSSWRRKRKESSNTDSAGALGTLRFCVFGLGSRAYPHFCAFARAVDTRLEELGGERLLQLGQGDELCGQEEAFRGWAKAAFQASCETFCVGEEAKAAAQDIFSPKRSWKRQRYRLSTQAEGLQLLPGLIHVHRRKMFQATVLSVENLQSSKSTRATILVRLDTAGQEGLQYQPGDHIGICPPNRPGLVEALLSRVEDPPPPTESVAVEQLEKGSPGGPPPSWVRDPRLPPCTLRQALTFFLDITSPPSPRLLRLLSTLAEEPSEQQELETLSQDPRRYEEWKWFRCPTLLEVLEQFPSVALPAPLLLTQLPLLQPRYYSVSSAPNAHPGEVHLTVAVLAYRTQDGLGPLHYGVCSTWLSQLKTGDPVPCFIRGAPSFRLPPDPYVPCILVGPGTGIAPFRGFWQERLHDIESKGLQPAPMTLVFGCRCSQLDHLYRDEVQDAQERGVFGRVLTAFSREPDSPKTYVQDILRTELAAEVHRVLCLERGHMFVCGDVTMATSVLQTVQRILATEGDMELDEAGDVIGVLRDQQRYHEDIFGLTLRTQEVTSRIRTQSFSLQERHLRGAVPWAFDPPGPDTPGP
Experimental: (§2) NOS activity measurements were performed using recombinant rat NNOS (purified from overexpressing HEK293 cells), recombinant bovine ENOS (purified from overexpressing E. coli) or native INOS (from immunostimulant-activated rat aortic smooth muscle cells). Activity was determined with 1-20 pmole of NOS using a kinetic 96-well microtiter plate assay based on the kinetics of NADPH consumption (NNOS and ENOS) or Fe^2+-myoglobin oxidation. Radioligand binding was performed after incubation of 1-2 pmole of NOS for 15 minutes at 23° C. with either Bolton-Hunter labelled [125I]-calmodulin (1 nM) or [3H]-N-nitro-L-arginine (200 pM) and the indicated peptides. Values are means ±SEM of triplicate determinations.

[4] = biological target: T3, recombinant rat NNOS (Rattus norvegicus, UniProt P29476); assay: as above; format: biochemical; conditions: peptide 100 μg/ml; mean ± SEM, triplicate
T3 construct: made in house; host or cells: HEK293 cells
T3 sequence (P29476 whole entry): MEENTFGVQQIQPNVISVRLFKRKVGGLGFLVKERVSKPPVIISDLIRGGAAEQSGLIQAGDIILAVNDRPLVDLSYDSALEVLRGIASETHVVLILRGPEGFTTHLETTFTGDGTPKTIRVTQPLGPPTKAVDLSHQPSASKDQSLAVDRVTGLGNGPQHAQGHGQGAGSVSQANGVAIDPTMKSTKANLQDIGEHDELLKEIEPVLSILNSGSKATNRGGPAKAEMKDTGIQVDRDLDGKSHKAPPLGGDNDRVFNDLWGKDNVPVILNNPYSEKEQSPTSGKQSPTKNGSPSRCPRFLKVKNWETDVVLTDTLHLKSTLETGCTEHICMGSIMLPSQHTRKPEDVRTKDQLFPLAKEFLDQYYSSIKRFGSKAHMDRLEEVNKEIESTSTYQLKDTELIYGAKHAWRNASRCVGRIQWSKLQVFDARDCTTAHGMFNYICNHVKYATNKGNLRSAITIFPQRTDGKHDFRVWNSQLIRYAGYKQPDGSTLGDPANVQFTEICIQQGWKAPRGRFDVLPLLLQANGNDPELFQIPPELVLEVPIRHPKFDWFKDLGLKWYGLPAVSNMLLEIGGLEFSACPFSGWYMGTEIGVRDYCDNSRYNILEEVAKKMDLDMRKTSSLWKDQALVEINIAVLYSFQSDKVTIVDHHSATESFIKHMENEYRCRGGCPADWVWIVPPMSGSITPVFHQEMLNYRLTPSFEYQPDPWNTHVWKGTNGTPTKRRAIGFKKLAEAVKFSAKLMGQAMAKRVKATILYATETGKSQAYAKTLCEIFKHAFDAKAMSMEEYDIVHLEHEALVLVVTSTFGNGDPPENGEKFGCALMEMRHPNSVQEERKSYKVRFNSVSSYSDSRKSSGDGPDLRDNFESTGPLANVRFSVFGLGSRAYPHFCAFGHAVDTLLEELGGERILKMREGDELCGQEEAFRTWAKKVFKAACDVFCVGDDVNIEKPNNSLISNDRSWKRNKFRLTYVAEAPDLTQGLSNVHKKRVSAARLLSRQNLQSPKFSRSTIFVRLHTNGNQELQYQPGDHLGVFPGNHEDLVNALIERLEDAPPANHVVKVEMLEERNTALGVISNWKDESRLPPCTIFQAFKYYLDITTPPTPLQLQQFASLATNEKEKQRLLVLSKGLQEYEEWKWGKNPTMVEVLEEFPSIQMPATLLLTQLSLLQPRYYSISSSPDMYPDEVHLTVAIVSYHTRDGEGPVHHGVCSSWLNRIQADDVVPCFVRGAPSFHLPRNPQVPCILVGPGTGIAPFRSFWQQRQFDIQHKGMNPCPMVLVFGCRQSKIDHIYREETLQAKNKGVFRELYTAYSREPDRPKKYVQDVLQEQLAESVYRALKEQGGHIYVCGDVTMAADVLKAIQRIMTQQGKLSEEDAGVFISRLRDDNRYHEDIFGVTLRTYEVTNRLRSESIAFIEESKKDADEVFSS
Experimental: as §2

[5] = biological target: T4, native INOS (from immunostimulant-activated rat aortic smooth muscle cells) (Rattus norvegicus, UniProt Q06518); assay: NOS activity, kinetic 96-well microtiter plate assay, Fe2+-myoglobin oxidation; format: biochemical; conditions: peptide 100 μg/ml; mean ± SEM, triplicate
T4 construct: endogenous in cells
Experimental: as §2

[6] = test system: NOS; assay: Radioligand binding of [3H]-N-nitro-L-arginine to NOS; design: scale not given here; conditions: peptide 100 μg/ml; ligand 200 pM, 15 minutes at 23° C.; mean ± SEM
Experimental: as §2

[7] = test system: NOS; assay: Radioligand binding of [125I]-calmodulin to NOS; design: scale not given here; conditions: peptide 100 μg/ml; ligand 1 nM, 15 minutes at 23° C.; mean ± SEM
Experimental: as §2

[8] = biological target: T5, ENOS (Bos taurus, UniProt P29473); assay: Effects on calmodulin binding (Example 3), ENOS
T5 sequence (P29473 2-1205): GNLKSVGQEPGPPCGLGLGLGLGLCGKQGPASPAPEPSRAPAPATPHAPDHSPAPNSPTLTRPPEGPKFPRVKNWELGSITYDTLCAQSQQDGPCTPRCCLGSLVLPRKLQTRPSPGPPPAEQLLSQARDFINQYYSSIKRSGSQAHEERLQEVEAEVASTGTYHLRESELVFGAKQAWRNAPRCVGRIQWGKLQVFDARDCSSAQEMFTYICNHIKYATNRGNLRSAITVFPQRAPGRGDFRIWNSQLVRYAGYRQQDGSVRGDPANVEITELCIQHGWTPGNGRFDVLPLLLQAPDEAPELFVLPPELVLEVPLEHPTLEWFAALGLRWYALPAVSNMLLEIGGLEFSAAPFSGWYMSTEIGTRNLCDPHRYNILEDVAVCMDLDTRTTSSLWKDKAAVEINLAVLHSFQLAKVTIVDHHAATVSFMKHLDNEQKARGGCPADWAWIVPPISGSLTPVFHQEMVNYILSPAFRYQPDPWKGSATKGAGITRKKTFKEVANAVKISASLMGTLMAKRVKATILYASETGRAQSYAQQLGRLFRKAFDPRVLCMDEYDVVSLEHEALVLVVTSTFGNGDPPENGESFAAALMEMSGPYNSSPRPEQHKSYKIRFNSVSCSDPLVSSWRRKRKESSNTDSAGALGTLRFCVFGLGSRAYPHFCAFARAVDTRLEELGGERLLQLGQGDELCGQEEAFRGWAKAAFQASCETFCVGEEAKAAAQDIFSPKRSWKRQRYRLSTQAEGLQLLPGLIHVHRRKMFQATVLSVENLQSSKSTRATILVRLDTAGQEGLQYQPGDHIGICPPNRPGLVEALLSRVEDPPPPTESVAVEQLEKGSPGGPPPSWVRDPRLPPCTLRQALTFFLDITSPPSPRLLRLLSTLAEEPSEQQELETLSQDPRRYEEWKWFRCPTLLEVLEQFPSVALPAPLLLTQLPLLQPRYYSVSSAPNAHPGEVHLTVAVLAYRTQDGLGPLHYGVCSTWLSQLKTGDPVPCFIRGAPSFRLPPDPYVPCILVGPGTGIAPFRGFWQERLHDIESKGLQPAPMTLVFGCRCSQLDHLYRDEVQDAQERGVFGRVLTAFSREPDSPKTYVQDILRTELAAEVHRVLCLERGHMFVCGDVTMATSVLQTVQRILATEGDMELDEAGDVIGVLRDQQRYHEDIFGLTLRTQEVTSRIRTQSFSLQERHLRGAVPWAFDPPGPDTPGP
Text: (§3) In addition to the inhibition of enzyme activity, it is possible to modulate CAM binding to NOS with synthetic homologs of the control site elements. The relationship between enzyme inhibition and CAM binding in the presence of control site elements can be complex. In other systems, antibodies to inhibitory elements sometimes induce partial CAM independent activation, while preventing CAM dependent activation. It is important to remember that CAM binding is only a means to displace the inhibitor.
(§4) While a number of the polypeptides could modulate CAM binding, the series containing the RRKRK (SEQ ID NO: 10) motif was the most instructive. […] CAM binding was decreased almost to background levels, with effects seen at the 10 uM level.

[9] = biological target: T1, NNOS; assay: Effects on calmodulin binding (Example 3), NNOS
Text: as §3, §4

T1 sequence (P29476 whole entry): as the sequence (P29476 whole entry) above

NNOS CAM Binding [1]: 152 ± 26 counts
INOS Activity 0.1 mg/ml [2]: 14.5 ± .70
NOS Activity (% of control) ENOS [3]: 27.7 ± 2.0 % of control
NOS Activity (% of control) NNOS [4]: 19.1 ± 0.9 % of control
NOS Activity (% of control) INOS [5]: 92.1 ± 1.3 % of control
Ligand binding to NOS [3H]-NHA [6]: 120.7 ± 12.7
Ligand binding to NOS [125I]-CAM [7]: 0.0 ± 0.5
effect on CAM binding to ENOS (in words) [8]: potent CAM antagonist
level at which effects on CAM binding are seen ([8]; ENOS): 10 µM
effect on CAM binding to NNOS (in words) [9]: potent CAM antagonist
level at which effects on CAM binding are seen ([9]; NNOS): 10 µM
Sequence: SSWRRKRKESS [BO58-08, 13; b114 cites it by residues 4-11]
